# B1: nitrophorin 4 (NP4) reconstituted with the symmetrical hemin, 2,4-dimethyldeuterohemin (natural protein, Rhodnius prolixus, UniProt Q94734 22-205, looked up)
# chain: ACTKNAIAQTGFNKDKYFNGDVWYVTDYLDLEPDDVPKRYCAALAAGTASGKLKEALYHYDPKTQDTFYDVSELQVESLGKYTANFKKVDKNGNVKVAVTAGNYYTFTVMYADDSSALIHTCLHKGNKDLGDLYAVLNRNKDAAAGDKVKSAVSAATLEFSKFISTKENNCAYDNDSLKSLLTK
# Biological target: the molecule itself
# Test: SEC
protein,measurement,value
B1,stoichiometry N,2

# Source: publication PMC4303294 (Biochemistry, 2014)
